Consider two proteins from paper PMC3590144, “Determination of the Structure of the Catabolic N-Succinylornithine Transaminase (AstC) from Escherichia coli” (PLoS ONE, 2013).

The term stoichiometry N denotes the number of molecules, sites or subunits per partner or assembly.

Series [1] concerns the molecule itself. The series can be described thus: crystal structure; apo-AstC without PLP; space group R32:h, 2 molecules in the asymmetric unit, 2.75 Å; grown in 1.4 M sodium malonate pH 7 at 20 °C; dimers formed by crystallographic symmetry.
Series [2] concerns the molecule itself. The series can be described thus: dynamic light scattering; in solution; hydrodynamic radius mean value 4.5 nm, about 100 kDa; data not shown.

B1: apo-AstC, N-succinylornithine transaminase from Escherichia coli, without PLP (enzyme, E. coli (BL21 DE3), UniProt P77581 1-406, looked up)
chain: MSQPITRENFDEWMIPVYAPAPFIPVRGEGSRLWDQQGKEYIDFAGGIAVNALGHAHPELREALNEQASKFWHTGNGYTNEPVLRLAKKLIDATFADRVFFCNSGAEANEAALKLARKFAHDRYGSHKSGIVAFKNAFHGRTLFTVSAGGQPAYSQDFAPLPADIRHAAYNDINSASALIDDSTCAVIVEPIQGEGGVVPASNAFLQGLRELCNRHNALLIFDEVQTGVGRTGELYAYMHYGVTPDLLTTAKALGGGFPVGALLATEECARVMTVGTHGTTYGGNPLASAVAGKVLELINTPEMLNGVKQRHDWFVERLNTINHRYGLFSEVRGLGLLIGCVLNADYAGQAKQISQEAAKAGVMVLIAGGNVVRFAPALNVSEEEVTTGLDRFAAACEHFVSRGSS
notes: AstC (acetyl/succinylornithine aminotransferase) of E. coli; native, untagged protein, no plasmid or clone used; electron density from Gln3 to Ser402, the last 4 residues (Arg-Gly-Ser-Ser) not modelled, which implies 406 residues; Endogenous protein of strain BL21 (DE3); also called apo-protein; apo-enzyme; source: endogenous, E. coli BL21 (DE3) grown in 2xYT, purified (Ni-NTA, size exclusion …)
Consider B1, for which the binding result in series [1] is “binds”.

B2: holo-AstC, N-succinylornithine transaminase from Escherichia coli reconstituted with PLP (enzyme, E. coli (BL21 DE3), UniProt P77581 1-406, looked up)
chain: MSQPITRENFDEWMIPVYAPAPFIPVRGEGSRLWDQQGKEYIDFAGGIAVNALGHAHPELREALNEQASKFWHTGNGYTNEPVLRLAKKLIDATFADRVFFCNSGAEANEAALKLARKFAHDRYGSHKSGIVAFKNAFHGRTLFTVSAGGQPAYSQDFAPLPADIRHAAYNDINSASALIDDSTCAVIVEPIQGEGGVVPASNAFLQGLRELCNRHNALLIFDEVQTGVGRTGELYAYMHYGVTPDLLTTAKALGGGFPVGALLATEECARVMTVGTHGTTYGGNPLASAVAGKVLELINTPEMLNGVKQRHDWFVERLNTINHRYGLFSEVRGLGLLIGCVLNADYAGQAKQISQEAAKAGVMVLIAGGNVVRFAPALNVSEEEVTTGLDRFAAACEHFVSRGSS
modifications: PLP bound to Lys252 in a Schiff base (aldimine)
notes: AstC (acetyl/succinylornithine aminotransferase) of E. coli; native, untagged protein, no plasmid or clone used; the last 4 residues (Arg-Gly-Ser-Ser) after Ser402 not modelled, which implies 406 residues; Same polypeptide as m1, with the cofactor PLP added; Endogenous protein of strain BL21 (DE3); also called holo-enzyme; PLP/enzyme complex; source: endogenous, E. coli BL21 (DE3), purified …
Turning to B2, in series [2], the “stoichiometry N” value turned out to be 2.
